In patent US20030199022, “Tamoxifen and 4-hydroxytamoxifen-activated system for regulated production of proteins in eukaryotic cells” (Board of Trustees of University of Illinois, published 2003) one finds activity and binding signal data, which are given here for three molecules.

One data set addresses T1, ERα wild type (in cell) (Homo sapiens, UniProt P03372 SEQ:1-595).
T1 chain: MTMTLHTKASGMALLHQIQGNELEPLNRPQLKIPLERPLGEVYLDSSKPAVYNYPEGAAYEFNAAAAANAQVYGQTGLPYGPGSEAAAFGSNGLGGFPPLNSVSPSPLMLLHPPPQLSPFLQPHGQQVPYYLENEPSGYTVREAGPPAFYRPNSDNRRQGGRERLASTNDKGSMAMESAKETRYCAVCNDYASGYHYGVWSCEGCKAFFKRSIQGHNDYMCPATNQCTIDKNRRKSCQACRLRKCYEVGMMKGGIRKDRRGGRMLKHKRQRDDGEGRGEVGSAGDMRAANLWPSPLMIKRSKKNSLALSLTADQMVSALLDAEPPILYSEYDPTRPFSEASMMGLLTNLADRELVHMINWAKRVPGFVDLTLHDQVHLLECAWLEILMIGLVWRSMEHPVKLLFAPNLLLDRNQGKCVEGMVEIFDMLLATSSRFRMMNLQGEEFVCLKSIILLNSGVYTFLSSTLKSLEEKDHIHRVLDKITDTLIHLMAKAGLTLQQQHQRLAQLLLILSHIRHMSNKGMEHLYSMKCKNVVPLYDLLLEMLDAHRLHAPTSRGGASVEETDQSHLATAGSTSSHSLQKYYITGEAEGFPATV
In words: cell_activity; HepG2, 10 nM MOX, 2.5 ng plasmid. The note with it: chain copies: 2 inferred.

The target in another data set is ER4.3 (in cell) (Homo sapiens, UniProt P03372 SEQ:1-595, E203W,Q214V,G215R,H216P,N217T). The data set can be described thus: cell_activity; HepG2, 10 nM OHT. The note with it: chain copies: 2 inferred.
The target in the next data set is ER3M (in cell) (Homo sapiens, UniProt P03372 SEQ:1-595, E203W,Q214A,H216G). The data set can be described thus: cell_activity; HepG2, 10 nM OHT. The note with it: chain copies: 2 inferred.
The target in a further data set is T2, ERα wild type (hERα) (Homo sapiens, UniProt P03372 SEQ:1-595).
T2 chain: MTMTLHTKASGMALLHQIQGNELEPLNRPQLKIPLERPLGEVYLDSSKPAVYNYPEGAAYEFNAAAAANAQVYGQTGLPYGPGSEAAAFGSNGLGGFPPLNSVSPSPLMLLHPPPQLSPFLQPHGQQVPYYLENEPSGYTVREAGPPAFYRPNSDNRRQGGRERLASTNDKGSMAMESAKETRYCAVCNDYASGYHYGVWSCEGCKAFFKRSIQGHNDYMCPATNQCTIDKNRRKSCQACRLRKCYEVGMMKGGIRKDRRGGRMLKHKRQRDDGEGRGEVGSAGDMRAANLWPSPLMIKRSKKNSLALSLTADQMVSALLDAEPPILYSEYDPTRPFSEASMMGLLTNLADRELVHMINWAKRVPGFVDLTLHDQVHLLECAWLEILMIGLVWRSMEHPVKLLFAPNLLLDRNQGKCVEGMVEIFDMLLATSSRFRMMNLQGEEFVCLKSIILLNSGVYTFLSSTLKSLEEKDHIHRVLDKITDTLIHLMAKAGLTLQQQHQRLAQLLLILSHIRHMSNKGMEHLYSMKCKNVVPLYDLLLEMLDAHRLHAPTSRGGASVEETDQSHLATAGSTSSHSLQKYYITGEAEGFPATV
The data set can be described thus: EMSA; negligible binding. The following applies: tags: CHO-S whole cell extract; chain copies: 2 stated; label: labeled. On the procedure: (§1) To compare binding of wild type hERα and the ER mutants to the EREs, protein titrations were performed. Increasing amounts of extracts containing equivalent levels of wild-type ER or ER mutants were incubated with the cERE. The ER:ERE complexes were then analyzed by EMSA.
(§2) To test this idea, synthetic probe (SEQ NO: 63) comprising a perfect palindrome with both half sites representing the imperfect ERE half site in the pS2 gene was prepared (FIG. 1A(ii), pS2 PAL).
Background: A gel shift assay detects complexes by their altered migration in electrophoresis.

A further data set addresses ER4.3 (Homo sapiens, UniProt P03372 SEQ:1-595, E203W,Q214V,G215R,H216P,N217T). In words: EMSA. The note with it: chain copies: 2 stated; label: labeled. On the procedure:
as §1, §2

The target of the next data set is ER4 (Homo sapiens, UniProt P03372 SEQ:1-595, E203W,Q214A,G215R,H216G). In words: EMSA. The note with it: chain copies: 2 stated; label: labeled. On the procedure: as §1, §2
The next data set concerns the target ER2 (Homo sapiens, UniProt P03372 SEQ:1-595, E203W,Q214A,G215R). In words: EMSA. The note with it: chain copies: 2 stated; label: labeled. On the procedure: as §1, §2
The target in the next data set is ER3.1 (Homo sapiens, UniProt P03372 SEQ:1-595, E203W,Q214N,G215R,D218S). In words: EMSA. The note with it: chain copies: 2 stated; label: labeled. On the procedure:
as §1, §2

The target in another data set is ER3M (Homo sapiens, UniProt P03372 SEQ:1-595, E203W,Q214A,H216G). The data set can be described thus: EMSA; modestly lower than the other four mutants. The note with it: chain copies: 2 stated; label: labeled.

Description for ERα wild type (in cell): Fresh medium and (if any) hormones were added. For MCF-7 and 231 cells, transient transfection was carried out using the Tfx™-20 reagent (Promega; Madison, Wis.) according to the manufacturer's direction with minor changes. Briefly, 1×10⁵ cells were plated in each well of 12-well microplates one day before transfection. A 1:3 ratio of DNA to lipid was used. The DMEM/F12 medium without serum was used as carrier for the DNA-lipid mixture. After 1 hour incubation with the DNA-lipid-DMEM/F12 at 37° C., the cells were transferred to fresh DMEM/F12 supplemented with 10% CD-FBS, 50,000 U/I of penicillin, 50 mg/l streptomycin and hormones. […] The cells subjected to either transfection method were harvested 48 hours post-transfection. Reporter assays were performed by lysing the cells in situ with 250 μl of passive lysis buffer (Promega).

B1: ATL2/cERE (dsDNA)
DNA 1: AAGCTTAGGTCACTGTGACCTATCAAGATATCGAGATAGGTCACTGTGACCTATCGACTCTAGA
DNA 2: TCTAGAGTCGATAGGTCACAGTGACCTATCTCGATATCTTGATAGGTCACAGTGACCTAAGCTT
In the case of B1, in the data set with ERα wild type (in cell), the activity is 41 fold induction.

B2: ATL4/PAL (dsDNA)
DNA 1: AAGCTTGGGCCACTGTGGCCCATCAAGATATCGAGATGGGCCACTGTGGCCCATCGACAGGAATTCACGGGCCACTGTGGCCCATCAAGATATCGAGATGGGCCACTGTGGCCCATCGACTCTAGA
DNA 2: TCTAGAGTCGATGGGCCACAGTGGCCCATCTCGATATCTTGATGGGCCACAGTGGCCCGTGAATTCCTGTCGATGGGCCACAGTGGCCCATCTCGATATCTTGATGGGCCACAGTGGCCCAAGCTT
On to B2, for which the activity in the data set with ER4.3 (in cell) and in the data set with ER3M (in cell) was more than 80 fold induction in each case.

B3: pS2 PAL probe (dsDNA)
DNA 1: AGCTTCTCTATTGGGCCACTGTGGCCCTCATCTGAAGCT
DNA 2: AGCTTCAGATGAGGGCCACAGTGGCCCAATAGAGAAGCT
For B3, the binding signal with ERα wild type (hERα) is more than 100 fold weaker than cERE; with ER4.3, > 30 fold higher affinity than WT; in the data set with ER4 it was > 30 fold higher affinity than WT; with ER2 it was > 30 fold higher affinity than WT; in the data set with ER3.1 it was > 30 fold higher affinity than WT; with ER3M, > 30 fold higher affinity than WT.
